In publication PMC8726603:

Target: SUMO-tagged CGAS (human) (UniProt Q8N884)
Experiment: SPR

Chain of UniProt Q8N884 (Q8N884 whole entry): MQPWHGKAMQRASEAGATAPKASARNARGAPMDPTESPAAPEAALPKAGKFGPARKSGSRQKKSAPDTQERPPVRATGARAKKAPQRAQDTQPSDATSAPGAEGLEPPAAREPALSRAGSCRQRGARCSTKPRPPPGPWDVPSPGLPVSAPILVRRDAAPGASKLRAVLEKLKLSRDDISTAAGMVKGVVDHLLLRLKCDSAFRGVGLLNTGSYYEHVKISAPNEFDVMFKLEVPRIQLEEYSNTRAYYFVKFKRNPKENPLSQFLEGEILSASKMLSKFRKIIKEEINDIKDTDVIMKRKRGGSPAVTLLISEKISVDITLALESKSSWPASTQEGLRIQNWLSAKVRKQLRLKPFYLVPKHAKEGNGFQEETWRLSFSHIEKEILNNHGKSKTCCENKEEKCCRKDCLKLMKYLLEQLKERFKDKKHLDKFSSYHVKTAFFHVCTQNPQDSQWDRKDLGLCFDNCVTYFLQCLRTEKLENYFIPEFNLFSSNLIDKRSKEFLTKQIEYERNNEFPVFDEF

His-tagged LC3B (from UniProt Q9GZQ8 1-120) (natural protein; other documents disagree on this pair)
Kd: 170 nM
